Residue numbers refer to the chain shown, from its start. Blank lines part the entries; values can stand above or below the binder they belong to.
Columns and labels:
[1] = molecular target: T1, human IL-12Rβ2-huFc-his (R&D system), biotinylated (human, UniProt Q99665 24-622, limits assumed, biotinylated); assay: ELISA, periplasmic extract
T1 construct: bought; captured on Neutravidin in the ELISA; also called Bio-huIL-12Rβ2-huFc-His
T1 sequence (looked up): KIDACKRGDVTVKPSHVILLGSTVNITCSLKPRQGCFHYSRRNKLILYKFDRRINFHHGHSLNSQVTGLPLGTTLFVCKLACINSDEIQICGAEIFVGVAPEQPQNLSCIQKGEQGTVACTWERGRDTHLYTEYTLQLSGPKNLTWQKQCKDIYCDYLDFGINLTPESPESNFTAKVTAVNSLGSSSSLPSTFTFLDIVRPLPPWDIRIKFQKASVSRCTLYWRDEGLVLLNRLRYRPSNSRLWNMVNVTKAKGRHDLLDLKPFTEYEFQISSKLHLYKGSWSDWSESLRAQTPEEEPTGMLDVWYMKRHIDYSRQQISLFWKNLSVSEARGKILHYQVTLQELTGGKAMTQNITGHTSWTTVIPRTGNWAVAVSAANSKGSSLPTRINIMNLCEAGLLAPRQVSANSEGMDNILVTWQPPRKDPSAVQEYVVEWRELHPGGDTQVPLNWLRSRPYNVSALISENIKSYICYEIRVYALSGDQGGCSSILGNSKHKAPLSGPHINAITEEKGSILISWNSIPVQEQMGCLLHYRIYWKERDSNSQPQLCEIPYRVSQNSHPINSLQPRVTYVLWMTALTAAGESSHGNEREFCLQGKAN

[2] = molecular target: T2, human IL-12RB2 with C-terminal HA tag, transiently expressed on HEK-293T cells (human, UniProt Q99665 24-862); assay: FACS, periplasmic extract, HEK-293T
T2 construct: whole, on cells; also called human IL-12Rβ2
T2 sequence (looked up): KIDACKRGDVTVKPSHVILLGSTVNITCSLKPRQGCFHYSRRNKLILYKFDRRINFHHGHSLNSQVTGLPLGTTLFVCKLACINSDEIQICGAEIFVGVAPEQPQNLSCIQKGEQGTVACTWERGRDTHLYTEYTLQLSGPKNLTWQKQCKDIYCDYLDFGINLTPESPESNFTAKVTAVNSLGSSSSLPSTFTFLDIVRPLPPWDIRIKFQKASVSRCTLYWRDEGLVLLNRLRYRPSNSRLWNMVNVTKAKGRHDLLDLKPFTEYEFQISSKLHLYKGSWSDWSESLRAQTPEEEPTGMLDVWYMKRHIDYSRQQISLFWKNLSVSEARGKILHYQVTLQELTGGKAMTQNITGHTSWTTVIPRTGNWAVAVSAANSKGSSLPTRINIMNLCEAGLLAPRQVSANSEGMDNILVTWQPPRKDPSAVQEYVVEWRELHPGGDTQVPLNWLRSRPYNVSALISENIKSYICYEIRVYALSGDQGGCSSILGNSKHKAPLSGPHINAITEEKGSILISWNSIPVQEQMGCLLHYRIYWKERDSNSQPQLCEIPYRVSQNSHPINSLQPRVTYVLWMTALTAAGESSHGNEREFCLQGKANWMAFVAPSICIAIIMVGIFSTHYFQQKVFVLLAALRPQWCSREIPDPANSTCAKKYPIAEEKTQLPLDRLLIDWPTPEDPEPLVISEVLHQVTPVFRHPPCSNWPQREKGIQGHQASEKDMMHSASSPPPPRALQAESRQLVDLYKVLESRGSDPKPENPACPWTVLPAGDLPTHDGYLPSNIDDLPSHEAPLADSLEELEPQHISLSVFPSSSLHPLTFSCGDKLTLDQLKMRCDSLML

[3] = molecular target: T3, cyno IL-12RB2 with C-terminal HA tag, transiently expressed on HEK-293T cells (cyno, UniProt A0A2K5VNI7 24-860); assay: FACS, periplasmic extract, HEK-293T
T3 construct: whole, on cells; also called cyno IL-12Rβ2
T3 sequence: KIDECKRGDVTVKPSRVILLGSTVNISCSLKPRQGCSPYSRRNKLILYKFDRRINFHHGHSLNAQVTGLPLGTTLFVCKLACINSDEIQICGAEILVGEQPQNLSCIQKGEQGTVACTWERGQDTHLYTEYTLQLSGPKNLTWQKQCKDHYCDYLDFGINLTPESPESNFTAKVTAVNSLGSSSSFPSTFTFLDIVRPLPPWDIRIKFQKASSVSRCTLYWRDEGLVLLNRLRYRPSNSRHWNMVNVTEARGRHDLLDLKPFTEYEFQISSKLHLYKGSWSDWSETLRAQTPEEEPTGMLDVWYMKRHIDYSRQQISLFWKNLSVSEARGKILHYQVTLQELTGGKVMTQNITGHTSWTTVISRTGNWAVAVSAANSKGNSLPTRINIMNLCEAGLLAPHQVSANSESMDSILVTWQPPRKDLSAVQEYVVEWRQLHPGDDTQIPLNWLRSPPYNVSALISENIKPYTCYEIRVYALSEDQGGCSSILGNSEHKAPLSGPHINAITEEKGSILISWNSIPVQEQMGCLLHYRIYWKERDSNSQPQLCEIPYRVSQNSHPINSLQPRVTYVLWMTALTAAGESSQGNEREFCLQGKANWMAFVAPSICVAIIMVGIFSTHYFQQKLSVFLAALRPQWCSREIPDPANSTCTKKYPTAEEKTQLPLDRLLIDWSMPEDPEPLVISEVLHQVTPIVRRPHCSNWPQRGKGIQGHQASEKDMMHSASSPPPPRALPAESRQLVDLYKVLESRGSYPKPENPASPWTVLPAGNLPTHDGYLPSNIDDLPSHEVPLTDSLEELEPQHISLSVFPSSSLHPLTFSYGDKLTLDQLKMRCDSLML

OD450 nm [1]: 0.626 | FOB [2]: 1.95 fold | FOB [3]: 3.16 fold
B1: VHH307B2 (VHH)
VHH: QVQLVESGGGLVQAGGSLRLSCAASGRTFSRYIMGWFRQATGKEREFVAAISWSGLSTHYADSVQGRFTISRDNAENTVYLQMNSLKPEDTAVYYCAADRHWETRLLPREYDYWGQGTQVTVSS

OD450 nm [1]: 0.581 | FOB [2]: 1.73 fold | FOB [3]: 2.32 fold
B2: VHH67B2 (VHH)
VHH: QVQLVESGGGLVQPGGSLRLSCAASGFTFSNYAMSWIRQGPERGFEWVSRINSGGGTTSYADSVKGRFTISRDNAKNTLYLQMNSLKPEDTAVYYCAKHSHPDYSSNYYRPGQGTQVTVSS

OD450 nm [1]: 2.22 | FOB [2]: 1.68 fold | FOB [3]: 2.69 fold
B3: VHH64B2 (VHH)
VHH: QVQLVESGGGLVQPGGSLRLSCAASGFTFSSKAMHWFRQAPGKGLEWVSSINSGGAITYYKDSVKGRFTVSRDNAKNILYLEMNSLKPEDTALYYCATDTDGRTRGQGTQVTVSS

OD450 nm [1]: 0.602 | FOB [2]: 1.68 fold | FOB [3]: 3.06 fold
B4: VHH194B2 (VHH)
VHH: QLQLVESGGGLVQAGGSLRLSCAASGLTFSGYTVGWFRQAPGKEREFVAAINWSSAYTYSEFVKGRFTISRDNAKNTVYLQMSSLKPEDTAVYYCAARRSRTSWYASTAEAYDYWGQGTQVTVSS

OD450 nm [1]: 2.2 | FOB [2]: 1.98 fold | FOB [3]: 3.19 fold
B5: VHH294B2 (VHH)
VHH: B4 VHH with R98Q

OD450 nm [1]: 2.86 | FOB [2]: 1.43 fold
B6: VHH356B2 (VHH)
VHH: QLQLVESGGGLVQPGGSLRLSCAASGSIFSINAMGWYRQAPGKQRELVAAITSGGSTAYADSVKGRFTISRDNAKNTVYLQMNSLKPEDTAVYYCNADRDPITSWYVRGDYWGQGTQVTVSS

OD450 nm [1]: 2.13 | FOB [2]: 2.25 fold | FOB [3]: 3.47 fold
B7: VHH68B2 (VHH)
VHH: EVQLVESGGGLVQAGGSLKLSCAASGGTFSSYAMGWFRQAPGKEREFVAAIMRSGDTTVYVDSVKGRFTVSRDNAKNTVYLQMNSLKPEDAAVYYCAAGRPVTRTYYSTYTYPHDYDYWGQGTQVTVSS

OD450 nm [1]: 3.19 | FOB [2]: 1.91 fold | FOB [3]: 2.88 fold
B8: VHH289B2 (VHH)
VHH: B7 VHH with E1Q, D56G, D62N, T103S, Y106S, S108Y, T126S

OD450 nm [1]: 0.794 | FOB [2]: 2.46 fold | FOB [3]: 3.97 fold
B9: VHH278B2 (VHH)
VHH: B7 VHH with E1Q, A50V, V59A, Y95F, S108H

OD450 nm [1]: 0.19 | FOB [2]: 3.19 fold | FOB [3]: 3.84 fold
B10: VHH94B2 (VHH)
VHH: EVQLVESGGGLVQPGGSLRLSCAASGFTFSSYAMSWVRQAPGKGLEWVSAINSGGDSTSYADSVEGRFTISRDNAKNTLYLQMNSLKPDDTAVYYCAKWSDCSEYGCYDQTTTEGTQVTVSS

OD450 nm [1]: 1.3 | FOB [2]: 1.63 fold | FOB [3]: 2.75 fold
B11: VHH19B2 (VHH)
VHH: QVQLVESGGGLVQPGGSLRLSCAASGFTFSNYAMSWVRQAPGKGLEWVSAINSDGTSTSYADSVKGQFTISRDNAKNTLYLQMNSLKPEDTAVYYCTKWEGDTDSDYKFKDYWGQGTQVTVSS

OD450 nm [1]: 0.174 | FOB [2]: 2.25 fold | FOB [3]: 3.78 fold
B12: VHH190B2 (VHH)
VHH: QVQLQESGPGLVKPSQTLSLTCTVSGGSITTNYYYWSWIRQPPGKGLEWMGAIAYSGSTYYSPSLKSRTSISRDTSKNQFTLQLSSVTPEDTAVYYCASGINFYSNYPTLNEYDYWGQGTQVTVSS

OD450 nm [1]: 2.99 | FOB [2]: 1.64 fold | FOB [3]: 2.31 fold
B13: VHH85B2 (VHH)
VHH: QVQLVESGGGLVQAGGSLRVSCAASGRIPSLNTMAWYRQAPGKQREFVAFITNGGTTNYVDSVEGRFSISRDNTKNAVDLQMNSLKPEDTGVYYCNVQISQYPYNYWGQGTQVTVSS

OD450 nm [1]: 1.67 | FOB [2]: 1.99 fold | FOB [3]: 3.21 fold
B14: VHH322B2 (VHH)
VHH: QLQLVESGGGLVQAGGSLRLSCAASGRTFGIHGMGWFRQAPGKEREFAAAIRWSDGTTIHADSVKGRLTISRDNAKNTVYLQMNSLKPEDTAVYYCAATSNPQFGRNWYTVAAGVEYGYWGQGTQVTVSS

OD450 nm [1]: 0.308 | FOB [2]: 2.05 fold
B15: VHH230B2 (VHH)
VHH: QVQLVESGGGLVQAGGSLRLSCAASGRTFSSYAMGWFRQAPGKEREFVSAISWSGLSTYYVESVQGRFTISRDNAKNTVYLQMNSLKPEDTAVYYCAASRIYTNYVARSYEYDDWGQGTQVTVSS

OD450 nm [1]: 2.1 | FOB [2]: 2.71 fold | FOB [3]: 4.18 fold
B16: VHH185B2 (VHH)
VHH: QVQLVESGGGLVQAGGSLRLSCAASGRTFSRYRMGWFRQAPGKEREFVAAITKSGATTYDADSVKGRFTISRDNAKNTLYLQMNSLKPEDTAVYYCAASYHSNWWPKNADEYAYWGQGTQVTVSS

OD450 nm [1]: 1.35 | FOB [2]: 2.16 fold | FOB [3]: 4.01 fold
B17: VHH361B2 (VHH)
VHH: QVQLVESGGGLVQTGASLRLSCAASGRTFGRYEMAWFRQAPGKEREFVAHISSSGLTTTYADSVKGRFTISRGNALNTVYLQMNSLKPEDTAVYYCAANVDGSAWSTLGAGMDYWGKGTLVTISS

OD450 nm [1]: 0.961 | FOB [2]: 3.17 fold | FOB [3]: 1.28 fold
B18: VHH222B2 (VHH)
VHH: QVQLVESGGGLVQAGGSLRLSCAASGRIFSAYRMGWFRQAPGKEREFVAGITWRGQTTYYAASVKGRFTISKDNAKKTVYLQMNSLKPEETAVYYCAVETNGLGRWDRPSEYDYWGQGTQVTVSS

OD450 nm [1]: 1.71 | FOB [2]: 1.77 fold | FOB [3]: 2.65 fold
B19: VHH13B2 (VHH)
VHH: QVQLVESGGGLVRPGGSLRLSCAASGFTFSSNGMHWFRQAPGKGLEWVSSIGSGGTSIYYADSVKGRFTISRDNAKNTLYLQMNSLKSDDTAVYYCSKEVTGATRGQGTQVTVSS

— patent publication US20250019450A1 (DIAGONAL THERAPEUTICS, published 2025)
